Source: the nanobody polyreactivity screen of Harvey et al. (2022)

Assay: yeast display, Sf9 membrane polyspecificity reagent, FACS + sequencing; frameworks hold sequencing errors
How it was run: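 Synthetic nanobody libraries on Saccharomyces cerevisiae BJ5465 were galactose-induced for 36–48 hours, stained 1 hour at 4 °C with 10% biotinylated, detergent-solubilized Sf9 membrane reagent and enriched on streptavidin microbeads. FACS then separated cells into low and high (top ~1%) gates by anti-HA (expression) and streptavidin (reagent binding) fluorescence. Genes were colony-PCR amplified, MiSeq 2 × 250 sequenced and CDR-length filtered. A clone's polyreactivity label is that of its gate of origin.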

Row | Sequence | polyreactivity (PSR sort gate)
1 | QVQLVESGGGLVQAGGSLRLSCADSGITFFTYAMGRYRQAPGKERELVAAISGSGGSTYYADYVKWRFTISRDNAKNTVYLQMNSLKPEDTEVYYCAAEYTYGSPYDYWGQGTQVTVSS | low polyreactivity
2 | QVQLVESGGGLVQAGGSLRLSCADSGITFGLYAMGWYRQAPGKERELVAAISSSGGRTYYADSVKGRFTISRDIAKKTVYLQMYSLKPEDTAVYVCATDTDGFAANRPAGDGDWGQGTQVTVSS | high polyreactivity
3 | QVQLVESGGGLVQAGGSLRLSCADSGITFWRYAMGWYRHAPGKERELVAAISWSGGNTYYADSVKGRFTISRDNAKNTVYLQMNSLKPEDTAVYYCATSRTYVIYDYWGQGTQVTVSS | low polyreactivity
4 | QVQLVESGGGLVQAGGSLRLSCADSGLIFGYYAMGGYRQAPGKERELVAAITSSGTSTYYADSVKGRFTISRDNAKNTVYLQMNSLKPEDTAVYYCAAQYIGKKRFNYWGQGTQVTVSS | high polyreactivity
5 | QVQLVESGGGLVQAGGSLRLSCADSGLTFSVYTMGWYRQAPGKERELVAAITTSGGRTYYADSVKGRFTISRDNAKNTVYLQKNSLKPEDTAVYYCAAVRTGDTTGTMGYWGQGTQVTVSS | high polyreactivity
6 | QVQLVESGGGLVQAGGSLRLSCADSGNIFSWYAMGWYRQAPGKERELVAAITWSGGTTYYADSVKGRFTISRDNAKNTVYLQMNSLKPEDTAVYYCAVFSRYRSGYYSWGQGTQVTVSS | high polyreactivity
7 | QVQLVESGGGLVQAGGSLRLSCADSGRIFRDYAMGWYRQAPGKERELVAAISRSGGSTYYADSVKGRFTISRDNAKNTVYLQVNSLKPEDTAVFYCAAKYYYGGNGYWGQGTQVTVSS | low polyreactivity
8 | QVQLVESGGGLVQAGGSLRLSCADSGRIFYSYTRGWYRPAPGKERELVAAIRKSGGRTYYADSVKGRFTISRDNAKNTVYLQMNSLKPEDTAVYYCATTNYELSYYYWGQGTQVTVSS | high polyreactivity
9 | QVQLVESGGGLVQAGGSLRLSCADSGRIIYLNAMGLYRQAPGKERELVAAITRSAASTHYADSVKGRFTISRDNAKNTVYLQMNSLKPEDTAVYYCNARGYPKSWRYSRGYEYWGQGTQVTVSS | low polyreactivity
10 | QVQLVESGGGLVQAGGSLRLSCADSGRTFKSYAMGWYRQAPGKERELVAAISSSGGRTFYADSVKGRFTISRDNAKNTVYLQMNSLKPEDTAVYYCNARGFYRGYTYYYWGQGTQVTVSS | high polyreactivity
11 | QVQLVESGGGLVQAGGSLRLSCADSGRTFQRHARGWYRKAPGKEREFVAAISKSGGRTYYADSVKGRFTISRDTAKNTVSLQMNSLKPEDTAVYYCNRGSTHDLSHPELYGYWGQGTQVTVSS | high polyreactivity
12 | QVQLVESGGGLVQAGGSLRLSCADSGRTFVSNAMGWYRQAPGKERELVAAISGSGGITYYADSVKGRFTISRDNAKNTVYLQMNSLKPEDTAVYYCNADSSGWFPFDYWGQGTQVTVSS | low polyreactivity
13 | QVQLVESGGGLVQAGGSLRLSCADSGRTFWGYSMGCYRQAPGKERELVAAITWNGGRTYYADSVKGRFTISRDNAKNTVYLQMNSLKPEDTAVYYCAAGYPRFGYDYWGQGTQVTVSS | high polyreactivity
14 | QVQLVESGGGLVQAGGSLRLSCADSGRTFWSNAMGWYRQAPGKERELVARIDSTYYADSVKGRFTISRDNAKNTVYLQMNSLKPEDTAVYYCNADTIYYAGDFRYDYWGQGTQVTVSS | low polyreactivity
15 | QVQLVESGGGLVQAGGSLRLSCADSGRTFYGNARGWYRQAPGKERELVAAISISGGSTYYADSVKGRFTISRDNAKNTVYLQMNSLKPEDTAVYYCNAQEYYYYPYVYDSDYWGQGTQVTVSS | low polyreactivity
16 | QVQLVESGGGLVQAGGSLRLSCADSGRTFYYYAMGWYRQAPGKEREFVAAITTRGGSTYYADSVKGRFTISRDNAKNTVYLQMNSLTPEDTAVYYCAARYTGRQGVYKTYYYWGQGTQVTVSS | high polyreactivity

Row | Sequence | polyreactivity (PSR sort gate)
17 | QVQLVESGGGLVQAGGSLRLSCADSGRTIGLNGMGWYRQAPGKERELVAGISWTGGSTNYADSVKGRFTFSRDNEKNTVYLQINSLKPEDTAVYYCAADFVYYVVNDFGWSYAYEYWGQGTQVTVSS | low polyreactivity
18 | QVQLVESGGGLVQAGGSLRLSCADSGSIFDQYTMGWYRQAPGKERELVAGISSGGITNYADSVKGRFTISRDNAKNTVYLQMNSLKPEDTAVYYCAADNWYLAEYDYWGQGTQVTVSS | low polyreactivity
19 | QVQLVESGGGLVQAGGSLRLSCADSGSIFEFNTMGWYRQAPGKERELVAAISSADTTNYADSVKGRFTISRDNAKNTVYLQMNSLKPEDTAVYYCNKELHLSATLRVLGFDYWGQGTQVTVSS | low polyreactivity
20 | QVQLVESGGGLVQAGGSLRLSCADSGSIFFPYAMGWYRQAPGKERYLVAAISSGTSTYYADSVKGRFTISRDNAKNTVYLQMNSLKPEDTAVFYCNARHRRGRFTHDYDYWGQGTQVTVSS | low polyreactivity
21 | QVQLVESGGGLVQAGGSLRLSCADSGSIFGPYAMGWYRQAPGKEREFVAAISRSGTRTNYADSVKGRFTISRDNAKNTVYLQMNSLKPEDTAVYYCNARYVSASRNRGKSRYDYWGLGTQVTVSS | high polyreactivity
22 | QVQLVESGGGLVQAGGSLRLSCADSGSIFLIYAMGWYRQAPGKERELVATINRGDNTYYADSVKGRFTISRDNAKITVYLQMYSLKPEDTADGYWGQGTQVTGSS | low polyreactivity
23 | QVQLVESGGGLVQAGGSLRLSCADSGSIFLRYAMGWYRQAPGKERELVAAISCRGGSTYYADSVKGRFTISRDNAKNTVYLQMNSQKPEDTAVYYCAAYRGRSLEYDYWGQGTQVNVSS | high polyreactivity
24 | QVQLVESGGGLVQAGGSLRLSCADSGSIFTSNGMGWYRHAPGKERELVAAITSGTSTYYADSVKGRFTISRDNAKNTVYLQMNSLKPEDTAVYYCAAGRWWVYRYARYYYWGQGTQVTVSS | high polyreactivity
25 | QVQLVESGGGLVQAGGSLRLSCADSGSIFVAYAMRWYRPAPGKERELVAAISSSGGTTYYADSVKGRFTISRDNAKNTVYLQMNSLKPEDTAVYYSAARDYKYYYWGQGTQVTVSS | high polyreactivity
26 | QVQLVESGGGLVQAGGSLRLSCADSGSIFYVYAMGWYRQAPGKERELVATISSSAGSTYYADSVKGRFTISRDNAKNTVYLQMNSLKPEDTAVYYCNADSFLSWVYRYVYYGSGYWGQGTQVTVSS | low polyreactivity
27 | QVQLVESGGGLVQAGGSLRLSCADSGSILIYNAMGWYRQAPGKERELVAGISRRGASTYYADSVKGRFTISRDNAKNTVSLQMNSLKQEDTAVYYCAALGKYIVAWSGDYWGQGTQVTVSS | low polyreactivity
28 | QVQLVESGGGLVQAGGSLRLSCADSGSTFDSYAMGWYRQAPGKERELVASITSRGGRTYYADSVKGRFTISRDNAKNTVYLQMNSLKPEDTALYYCNAYRRNYYYYQRHGYWGQGTQVTVSS | high polyreactivity
29 | QVQLVESGGGLVQAGGSLRLSCADSGSTFGFYAMGWYRKAPGKERELVAAISSSGSTYYADSVKGRFTISRDNAKNTVYLQMNILKPEDTAFYSCGAHPGYYDYDYWGQGTQVTVSS | low polyreactivity
30 | QVQLVESGGGLVQAGGSLRLSCADSGSTFGLYAMGGYRQSPGKEREMVAAITWGGGSTYYADSVKVRFTISRDNAKNTVYFQMNSLKPEDTAVYYCAASPIYPVYRRHGYWGQGTQVTVSW | high polyreactivity
31 | QVQLVESGGGLVQAGGSLRLSCADSGSTFLYYAIVWYRQAPGKERELVASITGSGSNTYYADSVKGRFTISRDNAKNTVYLQMNSLKPEDTAVYYCASDPQSDIPSWLWYWGEYDYWGQGTQVTVSS | low polyreactivity
32 | QVQLVESGGGLVQAGGSLRLSCADSGSTFNIYAMGWYRQAPGKERELVAAISSGGTTYYADSVKGRFTISRDNAKNTVYLQMNSLKPEDTAVYYCAALTSSLPAYGYWGQGTQVTVSS | low polyreactivity
